Experimental data taken from FireProtDB (doi:10.1021/tx3002115).

B1: DNA polymerase IV, Q97W02 (parent)
chain: MIVLFVDFDYFYAQVEEVLNPSLKGKPVVVCVFSGRFEDSGAVATANYEARKFGVKAGIPIVEAKKILPNAVYLPMRKEVYQQVSSRIMNLLREYSEKIEIASIDEAYLDISDKVRDYREAYNLGLEIKNKILEKEKITVTVGISKNKVFAKIAADMAKPNGIKVIDDEEVKRLIRELDIADVPGIGNITAEKLKKLGINKLVDTLSIEFDKLKGMIGEAKAKYLISLARDEYNEPIRTRVRKSIGRIVTMKRNSRNLEEIKPYLFRAIEESYYKLDKRIPKAIHVVAVTEDLDIVSRGRTFPHGISKETAYSESVKLLQKILEEDERKIRRIGVRFSKFIEAIGLDKFFDT

Variants of: B1
Details: Saccharolobus solfataricus (strain ATCC 35092 / DSM 1617 / JCM 11322 / P2); pH 7.5; Thermal; CD; Na3PO4; NaCl MgCl2 50000 5000; structure 2RDI; whole UniProt chain shown

Variant	Tm [°C]	unfolding enthalpy (calorimetric) [kcal/mol]
E100A K148A	89.4	135
K148A E235A R240A	90.3	172
E100A K148A E235A R240A	90	163
E235A R240A	90.3	125
R240A	96.5	93
E100A E235A R240A	88.3	193
